According to doi:10.1101/2020.12.03.409318 (bioRxiv, 2020):

Molecular target: RBD-mFc (Sino Biologicals) (SARS-CoV-2, wild type (Wuhan-Hu-1 …, UniProt P0DTC2))
Test: BLI

B1: STE90-C11 Fab (Fab, V domains shown)
VH: QVQLVESGGGLVQPGGSLRLSCAASGLTVSSNYMSWVRQAPGKGLEWVSVIYSGGSTYYADSVKGRFTISRDDSKNTLYLQMNSLRAEDTAVYYCARDVADAFDIWGQGTMVTVSS
VL: DIVMTQSPSFLSASVGDRVTITCRASQGISSYLAWYQQKPGKAPKLLIYAASTLQSGVPSRFSGSGSGTEFTLTISSLQPEDFATYYCQQLNSYPPFTFGPGTKVDIK
Kd: 8.1 nM
